Reference: patent US20250043019A1 (Janssen / Centocor, published 2025)

Key:
Test in all cases: cell-based or functional assay
[1] = molecular target: T1, human CD79b and CD20 co-expressed on the surface of B-lymphoma cell lines or primary B cells (human, UniProt P11836 1-297)
T1 sequence 1: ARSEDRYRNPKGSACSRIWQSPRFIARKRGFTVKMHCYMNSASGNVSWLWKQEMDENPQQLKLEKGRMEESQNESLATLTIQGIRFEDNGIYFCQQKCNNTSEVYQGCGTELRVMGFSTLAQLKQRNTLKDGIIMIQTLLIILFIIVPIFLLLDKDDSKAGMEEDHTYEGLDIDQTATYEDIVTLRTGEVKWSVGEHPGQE
T1 sequence 2: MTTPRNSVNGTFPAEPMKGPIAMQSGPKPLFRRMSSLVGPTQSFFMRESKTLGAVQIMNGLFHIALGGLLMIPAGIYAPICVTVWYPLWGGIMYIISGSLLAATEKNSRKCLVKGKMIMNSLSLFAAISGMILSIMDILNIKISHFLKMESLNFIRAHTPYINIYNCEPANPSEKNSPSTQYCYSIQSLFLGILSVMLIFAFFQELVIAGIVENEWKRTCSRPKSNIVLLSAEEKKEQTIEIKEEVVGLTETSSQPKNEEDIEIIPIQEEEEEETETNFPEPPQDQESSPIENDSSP

[2] = molecular target: T1, human CD79b and CD20 co-expressed on …; remark: listed apart in the source
[3] = molecular target: T2, human CD79b on the cell surface (human, UniProt P40259 29-229)
T2 sequence: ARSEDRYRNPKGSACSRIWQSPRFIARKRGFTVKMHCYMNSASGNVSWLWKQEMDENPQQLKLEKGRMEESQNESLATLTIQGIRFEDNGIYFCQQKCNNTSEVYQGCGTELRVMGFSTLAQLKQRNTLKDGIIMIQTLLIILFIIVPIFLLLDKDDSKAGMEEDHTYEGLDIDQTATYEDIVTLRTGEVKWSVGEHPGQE

[4] = molecular target: T2, human CD79b on the cell surface; remark: listed apart in the source

B1: C923B95 CD79bxCD20xCD3 trispecific antibody (other)
heavy: QVQLQESGPGLVKPSQTLSLTCTVSGVSISNYYWSWIRQPPGKGLEWIGRISPSGRTNYNPSLKSRVTMSLDASKNQFSLKLSSVTAADTAVYYCARGEYSGTYSYSFDIWGQGTMVTVSSASTKGPSVFPLAPSSKSTSGGTAALGCLVKDYFPEPVTVSWNSGALTSGVHTFPAVLQSSGLYSLSSVVTVPSSSLGTQTYICNVNHKPSNTKVDKKVEPKSCDKTHTCPPCPAPEAAGGPSVFLFPPKPKDTLMISRTPEVTCVVVSVSHEDPEVKFNWYVDGVEVHNAKTKPREEQYNSTYRVVSVLTVLHQDWLNGKEYKCKVSNKALPAPIEKTISKAKGQPREPQVYTLPPSREEMTKNQVSLSCAVKGFYPSDIAVEWESNGQPENNYKTTPPVLDSDGSFFLVSKLTVDKSRWQQGNVFSCSVMHEALHNRFTQKSLSLSPGK
light: DIQMTQSPSSLSASVGDRVTITCRSSQSLFDSDDGNTYLDWFQQKPGQSPKLLIQTLSYRASGVPSRFSGSGSGTDFTLTISSLQPEDFATYYCMQRMEFPLTFGGGTKVEIKRTVAAPSVFIFPPSDEQLKSGTASVVCLLNNFYPREAKVQWKVDNALQSGNSQESVTEQDSKDSTYSLSSTLTLSKADYEKHKVYACEVTHQGLSSPVTKSFNRGEC
chain: EIVLTQSPATLSASPGERVTLSCSASSSVSYMNWYQQKPGQAPRRWIYDSSKLASGVPARFSGSGSGRDYTLTISSLEPEDFAVYYCQQWSRNPPTFGGGTKVEIKGGSEGKSSGSGSESKSTGGSQVQLVQSGAEVKKPGSSVKVSCKASGYTFTRSTMHWVRQAPGQGLEWMGYINPSSAYTNYAQKFQGRVTLTADKSTSTAYMELSSLRSEDTAVYYCASPQVHYDYGGFPYWGQGTLVTVSSEPKSSDKTHTCPPCPAPEAAGGPSVFLFPPKPKDTLMISRTPEVTCVVVSVSHEDPEVKFNWYVDGVEVHNAKTKPREEQYNSTYRVVSVLTVLHQDWLNGKEYKCKVSNKALPAPIEKTISKAKGQPREPQVYTLPPSREEMTKNQVSLWCLVKGFYPSDIAVEWESNGQPENNYKTTPPVLDSDGSFFLYSKLTVDKSRWQQGNVFSCSVMHEALHNHYTQKSLSLSPGKGGSEGKSSGSGSESKSTGGSAIQLTQSPSSLSASVGDRVTITCRASSSVSYIHWFQQKPGKAPKPLIYATSNLASGVPSRFSGSGSGTDFTLTISSLQPEDFATYYCQQWTSNPPTFGQGTKLEIKGGSEGKSSGSGSESKSTGGSQVQLVQSGAEVKKPGSSVKVSCKASGYTFTSYNMHWVRQAPGQGLEWMGAIYPGNGDTSYAQKFQGRVTITADKSTSTAYMELSSLRSEDTAVYYCARSTYYGGDWYFNVWGQGTLVTVSS
For B1, the “IC50, T-cell killing of HBL-1 (Incucyte)” value [1] was 4.89 nM and the “IC50, T-cell killing of OCI-Ly10 (Incucyte)” value (“IC50 … of OCI-Ly10 (Incucyte)” for short) [2] was 14.8 nM.

B2: 79C3B645 CD79bxCD3 bispecific antibody (bispecific antibody, human IgG1, lambda, L234A L235A)
heavy: QVQLQQSGPGLVKPSQTLSLTCAISGDSVSSNSATWNWIRQSPSRGLEWLGRTYYRSKWYNDYTVSVKSRITINPDTSKNQFSLQLNSVTPEDTAVYYCTRVDIAFDYWGQGTLVTVSSASTKGPSVFPLAPSSKSTSGGTAALGCLVKDYFPEPVTVSWNSGALTSGVHTFPAVLQSSGLYSLSSVVTVPSSSLGTQTYICNVNHKPSNTKVDKKVEPKSCDKTHTCPPCPAPEAAGGPSVFLFPPKPKDTLMISRTPEVTCVVVSVSHEDPEVKFNWYVDGVEVHNAKTKPREEQYNSTYRVVSVLTVLHQDWLNGKEYKCKVSNKALPAPIEKTISKAKGQPREPQVYTLPPSREEMTKNQVSLSCAVKGFYPSDIAVEWESNGQPENNYKTTPPVLDSDGSFFLVSKLTVDKSRWQQGNVFSCSVMHEALHNRFTQKSLSLSPGK
light: QTVVTQPPSVSEAPRQRVTISCSGSSSNIGNHGVNWYQQLPGKAPKLLIYNDDLLPSGVSDRFSGSTSGTSGSLAISGLQSEDEADYYCAAWDDSLNGVVFGGGTKLTVLGQPKAAPSVTLFPPSSEELQANKATLVCLISDFYPGAVTVAWKADSSPVKAGVETTTPSKQSNNKYAASSYLSLTPEQWKSHRSYSCQVTHEGSTVEKTVAPTECS
chain: EIVLTQSPATLSASPGERVTLSCSASSSVSYMNWYQQKPGQAPRRWIYDSSKLASGVPARFSGSGSGRDYTLTISSLEPEDFAVYYCQQWSRNPPTFGGGTKVEIKGGSEGKSSGSGSESKSTGGSQVQLVQSGAEVKKPGSSVKVSCKASGYTFTRSTMHWVRQAPGQGLEWMGYINPSSAYTNYAQKFQGRVTLTADKSTSTAYMELSSLRSEDTAVYYCASPQVHYDYGGFPYWGQGTLVTVSSEPKSSDKTHTCPPCPAPEAAGGPSVFLFPPKPKDTLMISRTPEVTCVVVSVSHEDPEVKFNWYVDGVEVHNAKTKPREEQYNSTYRVVSVLTVLHQDWLNGKEYKCKVSNKALPAPIEKTISKAKGQPREPQVYTLPPSREEMTKNQVSLWCLVKGFYPSDIAVEWESNGQPENNYKTTPPVLDSDGSFFLYSKLTVDKSRWQQGNVFSCSVMHEALHNHYTQKSLSLSPGK
B2 was tested, and the “IC50, T-cell killing of HBL-1 (Incucyte)” value [3] was 7.19 nM and the “IC50 … of OCI-Ly10 (Incucyte)” value [4] was 18 nM.

B3: 79C3B605 CD79bxCD3 bispecific antibody (bispecific antibody, human IgG1, kappa, L234A L235A)
heavy: QVQLQESGPGLVKPSETLSLTCSVSGASISSFYWSWIRQPADEGLEWIGRISPSGKTNYIPSLKSRIIMSLDASKNQFSLRLNSVTAADTAMYYCARGEYSGTYSYSFDVWGQGTMVTVSSASTKGPSVFPLAPSSKSTSGGTAALGCLVKDYFPEPVTVSWNSGALTSGVHTFPAVLQSSGLYSLSSVVTVPSSSLGTQTYICNVNHKPSNTKVDKKVEPKSCDKTHTCPPCPAPEAAGGPSVFLFPPKPKDTLMISRTPEVTCVVVSVSHEDPEVKFNWYVDGVEVHNAKTKPREEQYNSTYRVVSVLTVLHQDWLNGKEYKCKVSNKALPAPIEKTISKAKGQPREPQVYTLPPSREEMTKNQVSLSCAVKGFYPSDIAVEWESNGQPENNYKTTPPVLDSDGSFFLVSKLTVDKSRWQQGNVFSCSVMHEALHNRFTQKSLSLSPGK
light: DIVMTQSPLSLSVTPGEPASISCRSSESLLDSEDGNTYLDWFLQKPGQSPQLLIYTLSYRASGVPDRFSGSGSDTDFTLHISSLEAEDVGLYYCMQRMEFPLTFGQGTKVEIKRTVAAPSVFIFPPSDEQLKSGTASVVCLLNNFYPREAKVQWKVDNALQSGNSQESVTEQDSKDSTYSLSSTLTLSKADYEKHKVYACEVTHQGLSSPVTKSFNRGEC
chain: EIVLTQSPATLSASPGERVTLSCSASSSVSYMNWYQQKPGQAPRRWIYDSSKLASGVPARFSGSGSGRDYTLTISSLEPEDFAVYYCQQWSRNPPTFGGGTKVEIKGGSEGKSSGSGSESKSTGGSQVQLVQSGAEVKKPGSSVKVSCKASGYTFTRSTMHWVRQAPGQGLEWMGYINPSSAYTNYAQKFQGRVTLTADKSTSTAYMELSSLRSEDTAVYYCASPQVHYDYGGFPYWGQGTLVTVSSEPKSSDKTHTCPPCPAPEAAGGPSVFLFPPKPKDTLMISRTPEVTCVVVSVSHEDPEVKFNWYVDGVEVHNAKTKPREEQYNSTYRVVSVLTVLHQDWLNGKEYKCKVSNKALPAPIEKTISKAKGQPREPQVYTLPPSREEMTKNQVSLWCLVKGFYPSDIAVEWESNGQPENNYKTTPPVLDSDGSFFLYSKLTVDKSRWQQGNVFSCSVMHEALHNHYTQKSLSLSPGK
In the case of B3, the “IC50, T-cell killing of HBL-1 (Incucyte)” value [3] is reported as 29.5 nM and the “IC50 … of OCI-Ly10 (Incucyte)” value [4] is reported as 54.3 nM.

B4: 79C3B650 CD79bxCD3 bispecific antibody (bispecific antibody, human IgG1, kappa, L234A L235A)
heavy: QVQLQESGPGLVKPSQTLSLTCTVSGVSISNYYWSWIRQPPGKGLEWIGRISPSGRTNYNPSLKSRVTMSLDASKNQFSLKLSSVTAADTAVYYCARGEYSGTYSYSFDIWGQGTMVTVSSASTKGPSVFPLAPSSKSTSGGTAALGCLVKDYFPEPVTVSWNSGALTSGVHTFPAVLQSSGLYSLSSVVTVPSSSLGTQTYICNVNHKPSNTKVDKKVEPKSCDKTHTCPPCPAPEAAGGPSVFLFPPKPKDTLMISRTPEVTCVVVSVSHEDPEVKFNWYVDGVEVHNAKTKPREEQYNSTYRVVSVLTVLHQDWLNGKEYKCKVSNKALPAPIEKTISKAKGQPREPQVYTLPPSREEMTKNQVSLSCAVKGFYPSDIAVEWESNGQPENNYKTTPPVLDSDGSFFLVSKLTVDKSRWQQGNVFSCSVMHEALHNRFTQKSLSLSPGK
light: DIQMTQSPSSLSASVGDRVTITCRSSQSLFDSDDGNTYLDWFQQKPGQSPKLLIQTLSYRASGVPSRFSGSGSGTDFTLTISSLQPEDFATYYCMQRMEFPLTFGGGTKVEIKRTVAAPSVFIFPPSDEQLKSGTASVVCLLNNFYPREAKVQWKVDNALQSGNSQESVTEQDSKDSTYSLSSTLTLSKADYEKHKVYACEVTHQGLSSPVTKSFNRGEC
chain: EIVLTQSPATLSASPGERVTLSCSASSSVSYMNWYQQKPGQAPRRWIYDSSKLASGVPARFSGSGSGRDYTLTISSLEPEDFAVYYCQQWSRNPPTFGGGTKVEIKGGSEGKSSGSGSESKSTGGSQVQLVQSGAEVKKPGSSVKVSCKASGYTFTRSTMHWVRQAPGQGLEWMGYINPSSAYTNYAQKFQGRVTLTADKSTSTAYMELSSLRSEDTAVYYCASPQVHYDYGGFPYWGQGTLVTVSSEPKSSDKTHTCPPCPAPEAAGGPSVFLFPPKPKDTLMISRTPEVTCVVVSVSHEDPEVKFNWYVDGVEVHNAKTKPREEQYNSTYRVVSVLTVLHQDWLNGKEYKCKVSNKALPAPIEKTISKAKGQPREPQVYTLPPSREEMTKNQVSLWCLVKGFYPSDIAVEWESNGQPENNYKTTPPVLDSDGSFFLYSKLTVDKSRWQQGNVFSCSVMHEALHNHYTQKSLSLSPGK
For B4, the “IC50, T-cell killing of HBL-1 (Incucyte)” value [3] was 43.3 nM and the “IC50 … of OCI-Ly10 (Incucyte)” value [4] was 7 nM.
